Where a chain is given by its changes, count along the chain named.
B1: gamma-hemolysin component HlgA (S component leukotoxin) of Staphylococcus aureus (natural protein)
chain: ENKIEDIGQGAEIIKRTQDITSKRLAITQNIQFDFVKDKKYNKDALVVKMQGFISSRTTYSDLKKYPYIKRMIWPFQYNISLKTKDSNVDLINYLPKNKIDSADVSQKLGYNIGGNFQSAPSIGGSGSFNYSKTISYNQKNYVTEVESQNSKGVKWGVKANSFVTPNGQVSAYDQYLFAQDPTGPAARDYFVPDNQLPPLIQSGFNPSFITTLSHERGKGDKSEFEITYGRNMDATYAYVTRHRLAVDRKHDAFKNRNVTVKYEVNWKTHEVKIKSITPK
B2: atypical chemokine receptor 1 (ACKR1), purified, glycosylated wild type (receptor)
chain: MGNCLHRAELSPSTENSSQLDFEDVWNSSYGVNDSFPDGDYGANLEAAAPCHSCNLLDDSALPFFILTSVLGILASSTVLFMLFRPLFRWQLCPGWPVLAQLAVGSALFSIVVPVLAPGLGSTRSSALCSLGYCVWYGSAFAQALLLGCHASLGHRLGAGQVPGLTLGLTVGIWGVAALLTLPVTLASGASGGLCTLIYSTELKALQATHTVACLAIFVLLPLGLFGAKGLKKALGMGPGPWMNILWAWFIFWWPHGVVLGLDFLVRSKLLLLSTCLAQQALDLLLNLAEALAILHCVATPLLLALFCHQATRTLLPSLPLPEGWSSHLDTLGSKS
modifications: N-glycosylated at N16, N27 and N33
B3: gamma-hemolysin component HlgB (F component leukotoxin) of Staphylococcus aureus (natural protein)
chain: NAEGKITPVSVKKVDDKVTLYKTTATADSDKFKISQILTFNFIKDKSYDKDTLVLKATGNINSGFVKPNPNDYDFSKLYWGAKYNVSISSQSNDSVNVVDYAPKNQNEEFQVQNTLGYTFGGDISISNGLSGGLNGNTAFSETINYKQESYRTTLSRNTNYKNVGWGVEAHKIMNNGWGPYGRDSFHPTYGNELFLAGRQSSAYAGQNFIAQHQMPLLSRSNFNPEFLSVLSHRQDGAKKSKITVTYQREMDLYQIRWNGFYWAGANYKNFKTRTFKSTYEIDWENHKVKLLDTKETENNK

Assays:
[1] = target: SNAP-tag-fused ACKR1 receptor (human) (UniProt Q16570); test: FRET or BRET
[2] = target: T1, N16,27,33Q-ACKR1 mutant (non-glycosylated) (human, UniProt Q16570 1-336, N^16,27,33Q | N^16,27,33Q | N^16,27,33Q); test: HDX-MS
T1 sequence: B2 chain with N16Q, N27Q, N33Q

[3] = target: T2, gamma-hemolysin component HlgA (S component leukotoxin) of Staphylococcus aureus (Staphylococcus aureus), P0A074; test: native MS; conditions: remark: other sources report otherwise
T2 chain: B1 chain

[4] = target: B3; test: native MS
[5] = target: T3, ACKR1 treated with PNGase F (deglycosylated ACKR1) (human, UniProt Q16570 1-336, N-glycans removed by PNGase F); test: native MS
T3 sequence: B2 chain

native MS = target: the molecule itself; test: native MS

HlgAB, equimolar mixture of HlgA and HlgB (from UniProt P0A074;P0A077) (complex)
IC50 [1]: 6.2 nM

B1
binding result [2]: binds
relative quantification in the equimolar mixture (HlgA monomer 100%) [3]: 1.5%
stoichiometry N [3]: 2
binding result [4]: binds
stoichiometry N [5]: 1

B2
stoichiometry N (native MS): 2

B3
binding result [2]: binds
fold dimer-to-monomer ratio against HlgA (native MS): 2 fold
stoichiometry N (native MS): 2

From publication doi:10.1101/2021.02.08.430206 (bioRxiv, 2021)
